In data set [1] the target is T1, XPA (human, UniProt P23025 1-273). The experiment in a line: photocrosslinking.
Data set [2] has as its target T1, XPA. The experiment in a line: photocrosslinking. The source holds these as a separate data set.

Like-named read-outs stand apart in the source and are kept apart here.

T1 sequence (P23025 whole entry): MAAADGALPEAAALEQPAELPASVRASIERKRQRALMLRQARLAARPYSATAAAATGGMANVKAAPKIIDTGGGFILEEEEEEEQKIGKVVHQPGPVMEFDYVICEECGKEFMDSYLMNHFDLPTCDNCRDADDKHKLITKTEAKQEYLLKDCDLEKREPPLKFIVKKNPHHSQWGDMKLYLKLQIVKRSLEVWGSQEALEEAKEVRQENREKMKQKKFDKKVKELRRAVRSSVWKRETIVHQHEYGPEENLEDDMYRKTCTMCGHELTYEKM

B1: damaged duplex Fg/4 (dsDNA)
DNA 1: GTCGTTCGGAAGACCCTGACGTTGCCCAACTTAATCGCCTCGCCATAG
DNA 2: CTATGGCGAGGCGATTAAGTTGGGCAACGTCAGGGTCTTCCGAACGAC
modifications: strand 1 T23 = Flu-dUMP; strand 2 T30 = 5-iodo-dUMP
As to B1, in the data set with XPA [1], the binding result is on record as “binds”.

B2: damaged duplex FI3/N (dsDNA)
DNA 1: GTCGTTCGGAAGACCCTGACGTTACCCAACTTAATCGCCTCGCCATAG
DNA 2: CTATGGCGAGGCGATTAAGTTGGGTAACGTCAGGGTCTTCCGAACGAC
modifications: strand 1 T17 = 5-iodo-dUMP, T22 = Flu-dUMP
Consider B2, for which, in the data set with XPA [2], the binding result is “binds”.

(Values after article PMC3001049.)
